{"source": "patent US20260242839A1", "about": "“GLYCOSIDE PRODUCT BIOSYNTHESIS AND RECOVERY” (Manus Bio Inc., priority 2023, published 2026)", "molecules": {"B1": {"name": "M425S: mutation to UGT enzyme of SEQ ID NO: 15 (protein)", "chain": "MARRTKNSSGMSLAERFWLTLSRSSLVVGRSCVEFEPETVPLLSTLRGKPITFLGLMPPLPEGRREDGEDATVRWLDAQPAKSVVYVALGSEVPLGVEKVHELALGLELAGTRFLWALRKPTGVSDADLLPAGFEERTRGRGVVATRWVPQMSILAHAAVGAFLTHCGWNSTIEGLMFGHPLIMLPITGDQGPNARLIEAKNAGLQVARNDGDGSFDREGVAAAIRAVAVEEESSKVFQEKAKKLQEIVADMACHERYIDGFIQQLRSYKDDSGYSSSYAAAAGMHVVICPWLAFGHLLPCLDLAQRLASRGHRVSFVSTPRNISRLPPVRPALAPLVAFVALPLPRVEGLPDGAESTNDVPHDRPDMVELHRRAFDGLAAPFSEFLGTACADWVIVDSFHHWAAAAALEHKVPCAMMFLGSAESIASIADERLEHAETESPAAAGQGRPAAAPTFEVARMKLIR"}, "B2": {"name": "P442G: mutation to UGT enzyme of SEQ ID NO: 15 (protein)", "chain": "B1 chain with S425M, P442G"}, "B3": {"name": "A451R: mutation to UGT enzyme of SEQ ID NO: 15 (protein)", "chain": "B1 chain with S425M, A451R"}, "B4": {"name": "G96M: mutation to UGT enzyme of SEQ ID NO: 15 (protein)", "chain": "B1 chain with G96M, S425M"}, "B5": {"name": "P442D: mutation to UGT enzyme of SEQ ID NO: 15 (protein)", "chain": "B1 chain with S425M, P442D"}, "B6": {"name": "M152A_S153A: SEQ ID NO: 15 with mutations M152A, S153A (protein)", "chain": "B1 chain with M152A, S153A, S425M"}, "B7": {"name": "H402W: mutation to UGT enzyme of SEQ ID NO: 15 (protein)", "chain": "B1 chain with H402W, S425M"}, "B8": {"name": "L298F: mutation to UGT enzyme of SEQ ID NO: 15 (protein)", "chain": "B1 chain with L298F, S425M"}, "B9": {"name": "S125V: mutation to UGT enzyme of SEQ ID NO: 15 (protein)", "chain": "B1 chain with S125V, S425M"}, "B10": {"name": "SEQ ID NO: 81: UGT enzyme (Camelina sativa) (protein, listed as Camelina sativa)", "chain": "MASEKTLQVHPPLHFVLFPFMAQGHMIPMVDIARLLAQRGATVTIVTTRYNAGRFENVLSRAVESGLPINIVHVKFPYEEVGLPKGKENIDSLDSMELMVPFFKAVNMLQDPVVKLMEEMESRPSCIISDLLLPYTSKIAKKFNIPKIVFHGISCFCLLCVHVLRRNLEILTNLKSDKEYFLVPSFPDRVEFTKPQVTVETNASGDWKEFLDEMVEAEDTSYGVIINTFEELEPAYVKDYKDARAGNVWSIGPVSLCNKAGVDKAERGNKATIDQDECLKWLDSKEEGSVLYVCLGSICNLPLVQLKELGLGLEESQRPFIWVIRGWEKYNELSEWMVESGFEERIRERGLLIRGWAPQVLILSHPSVGGFLTHCGWNSTVEGITSGVPLITWPLFGDQFCNQTLVVQVLKAGVSVGVEEVMKWGEEEKIGVLVDKEGVKKAVEDLMGESDDAKERTKRVKELGGLAHKAVEEGGSSHSNITLFLQDIRQVQSV"}, "B11": {"name": "SEQ ID NO: 83: UGT73C33 (Glycyrrhiza uralensis) (protein, listed as Glycyrrhiza sp.)", "chain": "MAVFQANQPHFVLFPLMAQGHIIPMIDIARLLAQRGAIVTIFTTPKNASRFTSVLSRAVSSGLQIRLVHLHFPSKEAGLPEGCENLDMVASHDMICNIFQAIRMLQKQAEELFETLTPKPSCIISDFCIPWTTQVAEKHHIPRISFHGFSCFCLHCMLKIHTSKVLEGITSESEYFTVPGIPDQIQVTKQQVPGPMIDEMKEFGEQMRDAEIRSYGVIINTFEELEKAYVNDYKKERNGKVWCIGPVSLCNKDGLDKAQRGNKASISEHHCLEWLDLQQPNSVIYVCLGSLCNLTPPQLMELALGLEATKRPFIWVIREGNKFEELEKWISEEGFEERIKGRGLIIRGWAPQVLILSHPSIGGFLTHCGWNSTLEGVTAGVPMVTWPLFADQFLNEKLVTQVLRIGVSLGVDVPLKWGEEEKVGVQVKKEGIEKAICMVMDEGEESKERRERAKELSEMAKRAVEKDGSSHLNMTMLIQDIMQQSSSKVET"}, "B12": {"name": "SEQ ID NO: 17: SrUGT85C2 (Stevia rebaudiana) (protein, listed as Stevia rebaudiana)", "chain": "MDAMATTEKKPHVIFIPFPAQSHIKAMLKLAQLLHHKGLQITFVNTDFIHNQFLESSGPHCLDGAPGFRFETIPDGVSHSPEASIPIRESLLRSIETNFLDRFIDLVTKLPDPPTCIISDGFLSVFTIDAAKKLGIPVMMYWTLAACGFMGFYHIHSLIEKGFAPLKDASYLTNGYLDTVIDWVPGMEGIRLKDFPLDWSTDLNDKVLMFTTEAPQRSHKVSHHIFHTFDELEPSIIKTLSLRYNHIYTIGPLQLLLDQIPEEKKQTGITSLHGYSLVKEEPECFQWLQSKEPNSVVYVNFGSTTVMSLEDMTEFGWGLANSNHYFLWIIRSNLVIGENAVLPPELEEHIKKRGFIASWCSQEKVLKHPSVGGFLTHCGWGSTIESLSAGVPMICWPYSWDQLTNCRYICKEWEVGLEMGTKVKRDEVKRLVQELMGEGGHKMRNKAKDWKEKARIAIAPNGSSSLNIDKMVKEITVLARN"}, "B13": {"name": "SEQ ID NO: 82: UGT73F24 (Glycyrrhiza uralensis) (protein, listed as Glycyrrhiza sp.)", "chain": "MADVAEEQPLKIYFIPYLAAGHMIPLCDIATLFASRGHHVTIITTPSNAQTLRESHHFRVQTIQFPSQEVGLPAGVQNLTAVTNLDDSYKIYHATMLLRKHIEDFVERDPPDCIVADFLFPWVDDVATKLHIPRLVFNGFTLFTICAMESHKAHPLPVDAASGSFVIPDFPHHVTINSTPPKRTKEFVDPLLTEAFKSHGFLINSFVELDGEECVEHYERITGGHKAWHLGPAFLVHRTAQDRGEKSVVSTQECLSWLDSKRDNSVLYICFGTICYFPDKQLYEIASAIEASGHEFIWVVPEKRGNADESEEEKEKWLPKGFEERNNGKKGMIIRGWAPQVAILGHPAVGGFLTHCGWNSTVEAVSAGVPMITWPVHSDQYFNEKLITQVRGIGVEVGAEEWIVTAFRETEKLVGRDRIERAVRRVMDGGDEAVQIRRRARELGEMARQAVQEGGSSHTNLTALINDLKRWRDSKQLN"}}, "key": {"[1]": {"system": "steviol glycoside", "experiment": "steviol glycoside bioconversion by E. coli expressing individual mutations of UGT SEQ ID NO: 15", "type": "cell-based", "conditions": "fold improvement of % conversion vs parent UGT SEQ ID NO: 15; stevia leaf extract and glucose fed; 37° C., 48 hr", "experimental": "Fold improvement is with respect to % steviol glycoside conversion of the parent UGT enzyme of SEQ ID NO: 15. SEQ ID NO: 16 has the following mutations from SEQ ID NO: 15: M152A, S153A. Stevia leaf extract and glucose were fed to the bioconversion strains. Bioconversion took place at 37° C. for 48 hr. Data were quantified by reverse phase LC DAD to quantify conversion of steviol glycosides.\nFold improvement (FI) is with respect to % steviol glycoside conversion."}, "[2]": {"system": "mogrol", "experiment": "primary glycosylation at C3 and C24 hydroxyls of mogrol by cells expressing UGT enzymes", "type": "cell-based, E. coli", "conditions": "mogrol fed; 37° C., 48 hrs; LCMS/MS", "experimental": "Specifically, mogrol was fed to cells expressing various UGT enzymes. Reactions were incubated at 37° C. for 48 hrs. Products were quantified by LCMS/MS with authentic standards of each compound."}}, "note": "Residue numbers refer to the chain shown, from its start. Names and notes keep the numbering of the source. Values joined by “and” are separate entries in the source; they are usually repeats but may differ in a detail not shown here. Equal entries are not always repeated.", "data": [{"molecule": "B1", "values": [{"measurement": "FI % Stevioside −> rebE", "setting": "[1]", "result": 1.03}, {"measurement": "FI % rebA −> rebD", "setting": "[1]", "result": 1.02}]}, {"molecule": "B2", "values": [{"measurement": "FI % Stevioside −> rebE", "setting": "[1]", "result": 1.01}, {"measurement": "FI % rebA −> rebD", "setting": "[1]", "result": 1.01}]}, {"molecule": "B3", "values": [{"measurement": "FI % Stevioside −> rebE", "setting": "[1]", "result": 0.99}, {"measurement": "FI % rebA −> rebD", "setting": "[1]", "result": 1.02}]}, {"molecule": "B4", "values": [{"measurement": "FI % Stevioside −> rebE", "setting": "[1]", "result": "1.03 and 1.10"}, {"measurement": "FI % rebA −> rebD", "setting": "[1]", "result": "1.01 and 1.10"}]}, {"molecule": "B5", "values": [{"measurement": "FI % Stevioside −> rebE", "setting": "[1]", "result": 1.18}, {"measurement": "FI % rebA −> rebD", "setting": "[1]", "result": 1.19}]}, {"molecule": "B6", "values": [{"measurement": "FI % Stevioside −> rebE", "setting": "[1]", "result": 1.32}, {"measurement": "FI % rebA −> rebD", "setting": "[1]", "result": 1.26}]}, {"molecule": "B7", "values": [{"measurement": "FI % Stevioside −> rebE", "setting": "[1]", "result": 1.07}, {"measurement": "FI % rebA −> rebD", "setting": "[1]", "result": 1.09}]}, {"molecule": "B8", "values": [{"measurement": "FI % Stevioside −> rebE", "setting": "[1]", "result": 1.01}, {"measurement": "FI % rebA −> rebD", "setting": "[1]", "result": 0.97}]}, {"molecule": "B9", "values": [{"measurement": "FI % Stevioside −> rebE", "setting": "[1]", "result": 1.16}, {"measurement": "FI % rebA −> rebD", "setting": "[1]", "result": 1.13}]}, {"molecule": "B10", "values": [{"measurement": "C3 O-Glucosylation", "setting": "[2]", "result": "No"}, {"measurement": "C24 O-Glucosylation", "setting": "[2]", "result": "Yes"}]}, {"molecule": "B11", "values": [{"measurement": "C3 O-Glucosylation", "setting": "[2]", "result": "No"}, {"measurement": "C24 O-Glucosylation", "setting": "[2]", "result": "Yes"}]}, {"molecule": "B12", "values": [{"measurement": "C3 O-Glucosylation", "setting": "[2]", "result": "No"}, {"measurement": "C24 O-Glucosylation", "setting": "[2]", "result": "Yes"}]}, {"molecule": "B13", "values": [{"measurement": "C3 O-Glucosylation", "setting": "[2]", "result": "No"}, {"measurement": "C24 O-Glucosylation", "setting": "[2]", "result": "Yes"}]}]}
